Test [1] deals with β-catenin signaling. Kind of test: TOP-flash luciferase reporter assay in C2C12 cells. The class given is cell-based. The note with it: different concentrations. The protocol: Different concentrations of Wnt7a were tested to exclude a dose dependent effect on β-catenin signaling, as measured by induction of TOP-flash activity in C2C12 cells.
The UBC-Fzd7-Flag (Fzd7-Flag), CMV-Fzd7-EYFP (Fzd7-YFP), CMV-Fzd3-EYFP (Fzd3-YFP), CMV-EYFP (YFP), CMV-EGFP-Rac1-wt (GFP-Rac1, 12980, Addgene), CMV-EGFP-Rac1-T17N (Rac1-DN, 12982, Addgene), CMV-EGFP-RhoA-T19N (RhoA-DN, 12967, Addgene) and CMV-EGFP-Cdc42-T17N (Cdc42-DN, 12976, Addgene) constructs have been described previously (Bentzinger et al., 2013a; Subauste et al., 2000; von Maltzahn et al., 2011). The Fzd7-tdtomato plasmid was generated by replacing the C-terminal YFP in Fzd7-YFP with tdTomato. For TOP-flash and FOP-flash the TCF reporter plasmid kit (17-285, Millipore) was used with the dual-luciferase reporter assay system (E1960, Promega). For normalization pGL4.74[hRluc/TK] (E6921, Promega) was cotransfected. For TOP-flash and FOP-flash assays the cells were transfected with GenJet lipofection reagent (SL100499, SignaGen). Otherwise, Lipofectamine 2000 (11668019, Life Technologies) was used for transfections.

The subject of test [2] is mouse primary myoblasts. The test is described as follows: Scratch migration assay, mouse primary myoblasts. Type of test: cell-based. The protocol:
(§1) Cellular polarization is indicative of increased motility (de Forges et al., 2012). Scratch assays were used to test whether Wnt7a and Fzd7 polarization affect cell motility. To exclude effects on the localization of cells arising from altered rates of proliferation, cells were treated with Mitomycin-C.
Fzd7 deficient cells migrated 59% less compared to heterozygous myoblasts and expression of Fzd7-Flag in Fzd7 knockout myoblasts restored migration to normal levels (FIG. 2D). […] To investigate whether the stimulation of myoblast migration is dose dependent, different concentrations of Wnt7a and Wnt3a were tested for their effect on migration.
(§2) Following plasmid transfection or application of Wnts (R&D Systems), the cells were treated with Mitomycin-C for 2 h (50 μg/mL). Subsequently, the monolayer of cells was scraped in a straight line. The plates were then extensively washed with culture medium and incubated for 24 h before analysis. Analysis was performed using DAPI staining after matching the reference points and enumeration of DAPI-stained nuclei in the scar was performed. Unless otherwise indicated, Wnt7a and Wnt3a were used at a concentration of 100 ng/mL in scratch assays. Monodansylcadaverine (MDC, 30432, Sigma) was used in scratch assays at a concentration of 50 μm.

In test [3] the test system is mdx mice. Kind of test: Transplantation of Wnt-treated satellite cells into TA of mdx mice. Type of test: in vivo, mouse. The protocol: It is known that poor migration of myogenic cells upon intramuscular injection is a major hurdle for the development of cell based therapies for muscular dystrophy (Skuk et al., 2007). The present inventors tested whether satellite cells treated with Wnt7a ex vivo prior to transplantation would enhance engraftment. 10,000 satellite cells were isolated from Pax7-zsGreen mice by fluorescent activated cell sorting (Bosnakovski et al., 2008), treated with Wnt7a for 3 h; washed extensively; and transplanted into the TA of immunosuppressed dystrophin-deficient mdx mice that were injured with cardiotoxin 2 days before the procedure (FIG. 6A).
Transplantation of zsGreen-expressing satellite cells or myoblasts into mdx mice was performed as previously described (Bentzinger et al., 2013c). Before transplantation the cells were treated for 3 h with Wnt7a, Wnt5a, or Wnt3a (R&D Systems) at a concentration of 50 ng/mL for freshly isolated satellite cells or with 100 ng/mL for cultured cells. Myoblasts expressing tdTomato were transplanted into uninjured muscles of C57BL/6 mice that were implanted with an osmotic pump (Alzet) delivering FK506 (Sigma) at 2.5 mg/kg/day 3 days prior to the transplantations. In some experiments, the injection site was marked with blue fluorescent microspheres (2 μm, Life Technologies) that were added at a concentration of 1:100 (vol/vol) to the cell suspension. 10 μl of the cell-microsphere suspension was injected into the TA of each mouse using a Hamilton syringe.
Muscles frozen in liquid nitrogen were cut into 12 μm cross-sections. Cross-sections and cells were either fixed with ethanol (100%) or 2% PFA for 5 min, permeabilized with 0.1% Triton/0.1 M glycine/PBS for 10 min, blocked with 5% horse serum in PBS for several hours, and incubated with specific primary antibody in blocking buffer overnight at 4° C. Samples were subsequently washed with PBS and stained with appropriate fluorescently labeled secondary antibodies for 1 h at room temperature. After washing with PBS, samples were mounted with Permafluor (Fisher). Antibodies were as follows: chicken anti-GFP (Abcam, ab13970), mouse anti-Pax7 (DSHB), mouse anti-Dystrophin (7A10, DSHB), mouse anti-Rac1 (05-389, Millipore), mouse anti-Tubulin (Sigma, T9026), rabbit anti-Dvl2 (3224, Cell Signaling), rabbit anti-zsGreen (Clontech, 632474), rabbit anti-Laminin (Sigma, L9393), rabbit anti-HA (Millipore, 07-221).

For test [4], the system named is C2C12 cells. The test is described as follows: Morphological quantification of triangular polarized C2C12 cells. Type of test: cell-based. An excerpt: Cell migration is typically accompanied by cytoskeletal polarization leading to a distinctive triangular cell shape.
Fzd7-YFP was expressed in myogenic cells and induced polarization by 130% (FIG. 1A and FIG. 9A). […] The majority of Fzd7-YFP localized to small intracellular vesicles associated with the tubulin cytoskeleton in C2C12 cells (FIG. 1B). By contrast, no such localization could be observed for YFP alone (FIG. 9B).
For myoblast culture, satellite cells were FACS purified as described (Bentzinger et al., 2013c) and plated on Collagen-coated dishes (BD Biosciences) in Ham's F10 medium supplemented with 20% FBS and 5 ng/mL of basic FGF (Millipore). C2C12 cells and human myoblasts were cultured as previously described (von Maltzahn et al., 2012). For in vitro morphology quantifications, Wnt7a was used at a concentration of 50 ng/mL.

In test [5] the test system is C2C12 cells. The test is described as follows: Scratch migration assay, C2C12 cells. Type of test: cell-based. Conditions: Mitomycin-C treated, 24 h, Wnt 100 ng/mL, vs Veh. or empty vector. The protocol:
as §1, §2

Entries after “also recorded” stand apart in the source; their conditions may differ.

B1: Wnt7a: non-canonical Wnt polypeptide (R&D Systems) used to treat or load myogenic cells (protein, UniProt O00755 32-349, looked up)
Protein Wnt-7a: LGASIICNKIPGLAPRQRAICQSRPDAIIVIGEGSQMGLDECQFQFRNGRWNCSALGERTVFGKELKVGSREAAFTYAIIAAGVAHAITAACTQGNLSDCGCDKEKQGQYHRDEGWKWGGCSADIRYGIGFAKVFVDAREIKQNARTLMNLHNNEAGRKILEENMKLECKCHGVSGSCTTKTCWTTLPQFRELGYVLKDKYNEAVHVEPVRASRNKRPTFLKIKKPLSYRKPMDTDLVYIEKSPNYCEEDPVTGSVGTQGRACNKTAPQASGCDLMCCGRGYNTHQYARVWQCNCKFHWCCYVKCNTCSERTEMYTCK
As for B1, the TOP-flash reporter activity result in test [1] is listed as “does not activate the TOP-flash reporter at any tested concentration; also recorded: did not increase TOP-flash reporter activity”. The “dose dependency of myoblast migration” value in test [2] (different concentrations tested, mouse primary myoblasts) was “relatively linear increases in cell migration”. In test [2] (primary myoblasts from Fzd7−/− mice), the “response of cell migration to Wnt7a in Fzd7 knockout myoblasts” value is listed as “do not respond; also recorded: no reaction”. Besides, the “increase in cell migration” value in test [2] (satellite cell derived mouse primary myoblasts, Wnt 100 ng/mL, vs Veh. or empty vector) was 136%; in test [5], 443%. For the same molecule, the “enhanced engraftment of zsGreen-expressing cells” value in test [3] (10,000 satellite cells treated 3 h (50 ng/mL), mdx TA, after 3 weeks, vs Veh.) is on record as 69%. For the same molecule, the “numbers of endogenous satellite cells” value in test [3] (Pax7+/zsGreen− cells in host mdx muscle, vs Veh.) was “not significantly changed; also recorded: not altered”. Also, the “hypertrophy of dystrophin-expressing myofibers (minimal feret)” value in test [3] (myofibers fused with Wnt7a treated satellite cells, mdx TA) came to 116%. For the same molecule, the “proportion of zsGreen+ engrafted cells that express Ki67” value in test [3] (satellite cells into mdx TA, vs Veh.) is reported as “do not show more Ki67 staining; also recorded: did not alter”. Moreover, the “maximal distance between clusters of dystrophin-expressing myofibers” value in test [3] (satellite cells treated 3 h, mdx TA, average) is given as 3.7 mm. Moreover, in test [3] (satellite cells treated 3 h, mdx TA, vs Veh.), the “increase in number of myofibers expressing dystrophin” value was found to be 486%. The “increase in the abundance of triangular polarized cells” value in test [4] (C2C12 myoblasts, vs vehicle treated cells expressing YFP, Wnt7a 50 ng/mL) was 111%. Moreover, in test [4] (Fzd7-YFP expressing C2C12 cells treated with Wnt7a), the “increase in cell polarization” value came to 167%.

These data come from patent publication US20170087188A1, “WNT INDUCED MOTILITY AND ENHANCED ENGRAFTMENT OF CELLS” (OTTAWA HOSPITAL RESEARCH INSTITUTE, priority 2014, published 2017).
